Assay results reported in publication PMC4850456, “Phenylbutazone induces expression of MBNL1 and suppresses formation of MBNL1-CUG RNA foci in a mouse model of myotonic dystrophy”.

T1: GST-MBNL1 (1-260) (UniProt Q9NR56 1-260)
T1 sequence: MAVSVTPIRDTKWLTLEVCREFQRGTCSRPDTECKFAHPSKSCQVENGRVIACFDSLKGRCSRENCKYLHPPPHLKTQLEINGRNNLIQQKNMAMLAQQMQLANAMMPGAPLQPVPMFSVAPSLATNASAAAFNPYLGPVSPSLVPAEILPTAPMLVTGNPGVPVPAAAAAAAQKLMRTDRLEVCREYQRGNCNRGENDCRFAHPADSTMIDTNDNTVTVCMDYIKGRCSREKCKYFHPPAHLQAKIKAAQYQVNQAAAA

B1: CHRNA1 polypyrimidine tract RNA probe (ssRNA)
RNA: UUUCUCCUUUUCUGUGGGUGGACAGGGUGACAUGGUA
B2: CUG repeat RNA probe (structured_RNA)
RNA: GCCUGCUGCUGCUGCUGCUGCUGCUGCUGCUGGC

Columns and labels:
GST-PTBP1 = GST-PTBP1 (UniProt P26599 1-557); experiment: EMSA; no PBZ; 10 mM Tris-HCl pH 7.5, 50 mM KCl, 1 mM DTT, room temperature 30 min, 20 ul; 6 ug protein, RNA 2.5 pmol/ul; then PBZ 15 min at room temperature; settings: protein: recombinant; tags: GST (pGEX-6P-1); label: 5'-biotin
Sequence of GST-PTBP1 (P26599 whole entry, the tested form may be a part): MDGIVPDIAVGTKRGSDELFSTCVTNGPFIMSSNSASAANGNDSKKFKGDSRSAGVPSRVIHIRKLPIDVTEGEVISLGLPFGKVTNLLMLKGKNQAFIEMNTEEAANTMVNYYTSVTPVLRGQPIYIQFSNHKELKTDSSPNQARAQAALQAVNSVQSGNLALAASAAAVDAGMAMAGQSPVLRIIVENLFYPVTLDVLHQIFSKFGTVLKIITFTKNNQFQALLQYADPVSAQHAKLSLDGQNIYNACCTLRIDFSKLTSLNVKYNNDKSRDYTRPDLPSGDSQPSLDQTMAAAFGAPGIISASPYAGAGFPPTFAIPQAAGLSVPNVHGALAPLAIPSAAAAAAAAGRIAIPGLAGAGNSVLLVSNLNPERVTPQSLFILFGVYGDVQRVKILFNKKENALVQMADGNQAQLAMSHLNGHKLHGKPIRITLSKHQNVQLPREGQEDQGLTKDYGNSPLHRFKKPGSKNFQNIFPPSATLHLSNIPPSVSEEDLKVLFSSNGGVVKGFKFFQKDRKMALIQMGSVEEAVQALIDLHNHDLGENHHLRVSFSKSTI

GST-MBNL1 (1-260) = biological target: T1, GST-MBNL1 (1-260); experiment: as above; settings: protein: recombinant; tags: GST (N-terminal fusion); label: 5'-biotin

Binder	binding result (GST-PTBP1)	binding result (GST-MBNL1 (1-260))
B1	binds	
B2		binds
